Measured values published in paper PMC8673838, “MCPH1 inhibits Condensin II during interphase by regulating its SMC2-Kleisin interface” (eLife, 2021).
Non-standard residues stand in square brackets, D forms with d. No end group written: not given here. 5‑FAM = 5-carboxyfluorescein label; pS = N[C@@H](COP(=O)(O)O)C(=O)O

Assays:
Conditions in all cases: both partners purified
[1] = biological target: T1, human condensin II pentameric complex (SMC2, SMC4, NCAPH2, NCAPD3, NCAPG2) (human, UniProt O95347 1-1197; Q9NTJ3 1-1288; Q6IBW4 1-605; P42695 1-1498; Q86XI2 1-1143); test: fluorescence polarisation; direct binding; 0.3 µM 5-FAM peptide, 0.625-5 µM condensin II complex; 20 mM Tris pH 7.5, 200 mM NaCl, 1 mM DTT; room temperature
T1 construct: SMC2, human, subunit of condensin II; SMC4, human, subunit of condensin II; NCAPH2, human, kleisin subunit of condensin II; NCAPD3 (CAP-D3), human, HAWK subunit of condensin II; NCAPG2 (CAPG2), human, HAWK subunit of condensin II; It says only 'strep-tagged condensin II'; also called pentameric condensin II; strep-tagged condensin II; source: insect cells, purified as previously described (Kong …)
T1 sequence (O95347 whole entry, chain 1 of 4): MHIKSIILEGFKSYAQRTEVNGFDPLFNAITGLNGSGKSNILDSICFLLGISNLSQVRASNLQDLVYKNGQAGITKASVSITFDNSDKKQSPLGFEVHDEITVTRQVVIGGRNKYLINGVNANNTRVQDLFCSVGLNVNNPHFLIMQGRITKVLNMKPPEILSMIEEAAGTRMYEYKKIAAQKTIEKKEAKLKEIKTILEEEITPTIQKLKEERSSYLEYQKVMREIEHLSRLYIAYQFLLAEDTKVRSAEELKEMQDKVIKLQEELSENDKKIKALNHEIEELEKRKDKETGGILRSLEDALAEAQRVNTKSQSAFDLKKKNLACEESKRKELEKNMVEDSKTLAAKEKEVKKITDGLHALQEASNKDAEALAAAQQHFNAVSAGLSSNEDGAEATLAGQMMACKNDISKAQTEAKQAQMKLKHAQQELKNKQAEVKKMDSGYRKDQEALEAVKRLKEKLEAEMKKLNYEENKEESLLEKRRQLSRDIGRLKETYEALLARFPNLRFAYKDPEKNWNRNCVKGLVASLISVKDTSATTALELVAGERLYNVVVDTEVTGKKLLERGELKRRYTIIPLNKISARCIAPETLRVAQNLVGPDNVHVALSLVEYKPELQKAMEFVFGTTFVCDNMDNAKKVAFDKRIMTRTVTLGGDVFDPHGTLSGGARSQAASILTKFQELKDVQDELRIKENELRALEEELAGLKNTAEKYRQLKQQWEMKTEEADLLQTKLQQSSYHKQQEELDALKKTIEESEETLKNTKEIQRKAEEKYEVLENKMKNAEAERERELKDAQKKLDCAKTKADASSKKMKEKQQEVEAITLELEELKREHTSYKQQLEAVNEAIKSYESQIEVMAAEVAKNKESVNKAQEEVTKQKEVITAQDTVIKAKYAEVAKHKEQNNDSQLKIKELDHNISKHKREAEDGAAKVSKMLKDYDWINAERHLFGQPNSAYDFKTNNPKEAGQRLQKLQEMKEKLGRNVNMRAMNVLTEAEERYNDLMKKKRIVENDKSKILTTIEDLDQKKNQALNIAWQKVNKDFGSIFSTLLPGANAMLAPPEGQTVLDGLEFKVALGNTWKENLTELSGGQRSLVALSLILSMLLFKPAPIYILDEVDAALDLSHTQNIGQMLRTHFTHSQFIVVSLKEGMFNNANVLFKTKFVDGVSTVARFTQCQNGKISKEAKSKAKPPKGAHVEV
T1 sequence (Q9NTJ3 whole entry, chain 2 of 4): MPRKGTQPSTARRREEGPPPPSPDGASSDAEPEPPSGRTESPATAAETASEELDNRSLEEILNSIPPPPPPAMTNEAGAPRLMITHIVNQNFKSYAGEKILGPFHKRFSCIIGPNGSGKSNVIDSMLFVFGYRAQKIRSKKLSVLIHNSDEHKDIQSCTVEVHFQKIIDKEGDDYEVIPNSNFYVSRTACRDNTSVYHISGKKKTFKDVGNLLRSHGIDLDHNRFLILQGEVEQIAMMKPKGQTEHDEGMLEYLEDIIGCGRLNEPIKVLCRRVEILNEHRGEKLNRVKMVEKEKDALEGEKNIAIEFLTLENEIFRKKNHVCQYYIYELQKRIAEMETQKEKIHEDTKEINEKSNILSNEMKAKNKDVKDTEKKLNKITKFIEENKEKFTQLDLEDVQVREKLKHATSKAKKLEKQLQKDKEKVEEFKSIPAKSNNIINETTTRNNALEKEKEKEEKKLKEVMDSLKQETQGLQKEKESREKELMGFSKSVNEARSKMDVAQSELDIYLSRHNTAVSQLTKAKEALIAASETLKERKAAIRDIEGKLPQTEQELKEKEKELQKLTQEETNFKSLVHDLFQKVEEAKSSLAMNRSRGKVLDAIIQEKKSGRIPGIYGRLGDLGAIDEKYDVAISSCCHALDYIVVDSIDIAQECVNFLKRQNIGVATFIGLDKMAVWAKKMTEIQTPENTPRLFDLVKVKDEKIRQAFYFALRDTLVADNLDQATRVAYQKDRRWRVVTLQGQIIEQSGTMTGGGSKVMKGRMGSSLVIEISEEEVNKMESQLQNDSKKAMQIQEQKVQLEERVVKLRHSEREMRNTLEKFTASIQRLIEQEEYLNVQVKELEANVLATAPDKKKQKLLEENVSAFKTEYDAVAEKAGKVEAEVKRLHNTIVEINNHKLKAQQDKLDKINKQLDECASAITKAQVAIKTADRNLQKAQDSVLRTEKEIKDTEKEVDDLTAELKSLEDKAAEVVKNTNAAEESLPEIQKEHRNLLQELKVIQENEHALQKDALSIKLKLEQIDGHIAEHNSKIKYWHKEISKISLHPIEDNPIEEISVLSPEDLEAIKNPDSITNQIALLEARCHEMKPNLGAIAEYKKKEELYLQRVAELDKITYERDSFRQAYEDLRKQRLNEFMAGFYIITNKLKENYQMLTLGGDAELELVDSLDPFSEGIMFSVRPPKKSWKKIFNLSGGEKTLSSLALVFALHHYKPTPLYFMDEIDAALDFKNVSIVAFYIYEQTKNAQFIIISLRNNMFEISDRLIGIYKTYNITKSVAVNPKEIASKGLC
T1 sequence (Q6IBW4 whole entry, chain 3 of 4): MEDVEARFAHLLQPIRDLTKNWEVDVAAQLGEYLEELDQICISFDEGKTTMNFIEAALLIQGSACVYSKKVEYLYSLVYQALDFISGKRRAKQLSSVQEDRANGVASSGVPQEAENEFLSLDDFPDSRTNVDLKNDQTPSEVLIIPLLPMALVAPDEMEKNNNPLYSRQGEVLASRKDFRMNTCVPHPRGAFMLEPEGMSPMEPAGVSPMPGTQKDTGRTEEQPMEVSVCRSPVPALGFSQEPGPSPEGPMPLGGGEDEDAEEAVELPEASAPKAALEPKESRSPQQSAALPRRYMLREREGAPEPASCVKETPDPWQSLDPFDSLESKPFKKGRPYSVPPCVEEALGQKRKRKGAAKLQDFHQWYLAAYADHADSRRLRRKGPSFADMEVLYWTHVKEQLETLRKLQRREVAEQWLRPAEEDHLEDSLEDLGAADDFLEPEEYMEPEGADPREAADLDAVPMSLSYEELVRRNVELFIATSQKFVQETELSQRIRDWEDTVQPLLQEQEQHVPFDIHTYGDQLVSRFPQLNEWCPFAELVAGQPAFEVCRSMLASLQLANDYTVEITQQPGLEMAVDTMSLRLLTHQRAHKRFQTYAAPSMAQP
T1 sequence (P42695 whole entry, chain 4 of 4): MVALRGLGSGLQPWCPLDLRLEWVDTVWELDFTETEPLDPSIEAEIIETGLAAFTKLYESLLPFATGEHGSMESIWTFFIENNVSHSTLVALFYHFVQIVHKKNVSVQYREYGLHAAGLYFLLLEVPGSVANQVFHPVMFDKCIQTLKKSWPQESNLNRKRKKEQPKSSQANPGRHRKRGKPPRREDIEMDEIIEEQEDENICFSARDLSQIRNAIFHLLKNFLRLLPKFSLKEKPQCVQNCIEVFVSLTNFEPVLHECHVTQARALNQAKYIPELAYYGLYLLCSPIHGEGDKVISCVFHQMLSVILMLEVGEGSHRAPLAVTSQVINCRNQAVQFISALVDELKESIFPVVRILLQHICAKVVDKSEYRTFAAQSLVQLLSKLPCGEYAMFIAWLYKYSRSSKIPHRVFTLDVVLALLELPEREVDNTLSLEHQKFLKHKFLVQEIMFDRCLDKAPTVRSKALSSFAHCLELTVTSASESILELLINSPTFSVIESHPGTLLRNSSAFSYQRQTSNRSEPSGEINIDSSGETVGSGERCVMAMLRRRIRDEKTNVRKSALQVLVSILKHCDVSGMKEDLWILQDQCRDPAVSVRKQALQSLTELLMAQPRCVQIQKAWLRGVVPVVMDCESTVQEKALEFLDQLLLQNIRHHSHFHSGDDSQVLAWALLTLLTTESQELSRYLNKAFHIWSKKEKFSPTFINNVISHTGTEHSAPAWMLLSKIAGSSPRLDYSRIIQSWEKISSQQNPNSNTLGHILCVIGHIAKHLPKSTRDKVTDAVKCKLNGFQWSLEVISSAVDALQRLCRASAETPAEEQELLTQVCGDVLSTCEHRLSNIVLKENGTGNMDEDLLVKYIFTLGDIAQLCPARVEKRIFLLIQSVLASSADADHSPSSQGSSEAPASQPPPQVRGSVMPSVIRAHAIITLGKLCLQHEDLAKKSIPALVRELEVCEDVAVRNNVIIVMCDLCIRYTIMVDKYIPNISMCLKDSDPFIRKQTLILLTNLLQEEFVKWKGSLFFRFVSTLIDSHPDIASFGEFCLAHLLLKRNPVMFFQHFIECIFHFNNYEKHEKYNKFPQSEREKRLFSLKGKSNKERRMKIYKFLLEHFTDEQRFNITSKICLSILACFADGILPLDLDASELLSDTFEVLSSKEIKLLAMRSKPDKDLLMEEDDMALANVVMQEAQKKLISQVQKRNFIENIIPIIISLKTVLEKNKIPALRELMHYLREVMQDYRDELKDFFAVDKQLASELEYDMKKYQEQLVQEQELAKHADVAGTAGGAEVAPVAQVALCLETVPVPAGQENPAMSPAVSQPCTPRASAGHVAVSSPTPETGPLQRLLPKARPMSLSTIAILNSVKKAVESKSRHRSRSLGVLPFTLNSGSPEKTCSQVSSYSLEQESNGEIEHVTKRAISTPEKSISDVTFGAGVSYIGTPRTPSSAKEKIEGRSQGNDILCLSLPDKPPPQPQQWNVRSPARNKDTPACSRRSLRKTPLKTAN

[2] = biological target: T1, human condensin II pentameric complex …; test: native gel or EMSA; condensin II at increasing concentrations with MCPH1_(1-435)-MBP, MBP or 1 µM 5-FAM peptide and 50 nM Cy5-labelled 50 bp dsDNA; 15 min on ice; 2 % agarose, 0.5 x TBE
[3] = biological target: T2, tetrameric condensin II lacking NCAPD3 (human, UniProt O95347 1-1197; Q9NTJ3 1-1288; Q6IBW4 1-605; Q86XI2 1-1143); test: pull-down; strep-tagged condensin complexes (0.1 µM) with at least a 10-fold molecular excess of MBP MCPH1 constructs or MBP, Strep-tactin sepharose, 20 mM Tris pH 7.5, 150 mM NaCl, 10 % glycerol, 1 mM DTT; five washes; Coomassie or silver stain
T2 construct: SMC2, human; SMC4, human; NCAPH2, human; NCAPG2, human; also called tetrameric condensin II lacking the CAP-D3 subunit; source: insect cells, purified as previously described (Kong et al., 2020); copies: + + +
T2 sequence (O95347 whole entry, chain 1 of 3): as the sequence (O95347 whole entry, chain 1 of 4) above
T2 sequence (Q9NTJ3 whole entry, chain 2 of 3): as the sequence (Q9NTJ3 whole entry, chain 2 of 4) above
T2 sequence (Q6IBW4 whole entry, chain 3 of 3): as the sequence (Q6IBW4 whole entry, chain 3 of 4) above

[4] = biological target: T3, NCAPG2 subunit of human condensin II (human, UniProt Q86XI2 1-1143); test: as above
T3 construct: NCAPG2, human, HAWK subunit of condensin II; Never tested alone: the contact is drawn from complexes with and without this subunit; source: insect cells, as a subunit of purified condensin II (Kong et al., 2020)
T3 sequence (looked up): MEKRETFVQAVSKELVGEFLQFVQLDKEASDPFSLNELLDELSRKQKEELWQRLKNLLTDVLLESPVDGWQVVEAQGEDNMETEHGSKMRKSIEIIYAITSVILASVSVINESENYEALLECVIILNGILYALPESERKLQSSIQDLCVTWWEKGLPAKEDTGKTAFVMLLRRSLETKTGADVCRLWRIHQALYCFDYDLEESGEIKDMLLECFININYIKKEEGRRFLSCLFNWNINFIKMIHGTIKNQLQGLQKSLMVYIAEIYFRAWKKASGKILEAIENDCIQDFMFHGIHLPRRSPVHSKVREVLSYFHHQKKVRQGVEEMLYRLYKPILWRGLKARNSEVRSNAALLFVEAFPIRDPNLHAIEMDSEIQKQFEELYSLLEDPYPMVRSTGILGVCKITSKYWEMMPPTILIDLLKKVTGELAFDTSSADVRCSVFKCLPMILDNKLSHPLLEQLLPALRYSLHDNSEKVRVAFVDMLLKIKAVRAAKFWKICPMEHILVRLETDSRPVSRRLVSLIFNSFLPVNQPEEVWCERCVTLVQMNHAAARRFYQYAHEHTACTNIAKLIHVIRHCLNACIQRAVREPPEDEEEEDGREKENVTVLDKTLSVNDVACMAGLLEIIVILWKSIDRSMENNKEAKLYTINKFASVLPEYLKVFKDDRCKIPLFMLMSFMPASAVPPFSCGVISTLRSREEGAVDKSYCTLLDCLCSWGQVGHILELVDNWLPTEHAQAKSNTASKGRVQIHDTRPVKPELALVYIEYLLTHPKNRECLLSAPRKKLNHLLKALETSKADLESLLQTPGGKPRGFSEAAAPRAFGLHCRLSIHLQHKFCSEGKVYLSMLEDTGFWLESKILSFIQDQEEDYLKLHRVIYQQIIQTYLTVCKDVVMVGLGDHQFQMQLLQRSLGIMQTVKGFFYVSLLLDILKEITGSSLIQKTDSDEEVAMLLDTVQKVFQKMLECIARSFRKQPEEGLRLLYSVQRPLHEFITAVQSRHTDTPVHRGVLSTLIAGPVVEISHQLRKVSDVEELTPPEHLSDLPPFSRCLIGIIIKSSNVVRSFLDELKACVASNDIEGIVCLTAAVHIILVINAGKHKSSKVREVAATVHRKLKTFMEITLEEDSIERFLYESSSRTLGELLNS

[5] = biological target: T1, human condensin II pentameric complex …; test: as above
[6] = biological target: T1, human condensin II pentameric complex …; test: SEC; complex of condensin II (wild type or Q-loop mutant) with MCPH1_(1-435)MBP purified by gel filtration on Superose 6 10/300 in 20 mM Tris pH 7.5, 150 mM NaCl, 1 mM DTT, for ATPase assays
[7] = biological target: T4, condensin II with Q-loop mutation (SMC2 Q147L, SMC4 Q229L) (human, UniProt O95347 1-1197; Q9NTJ3 1-1288; Q6IBW4 1-605; P42695 1-1498; Q86XI2 1-1143, SMC2 Q147L | SMC4 Q229L); test: as above
T4 construct: SMC2, human, Q-loop mutant; SMC4, human, Q-loop mutant; NCAPH2, human; NCAPD3, human; NCAPG2, human; also called ATPase hydrolysis deficient Q-loop mutant condensin II; source: insect cells, purified as previously described (Kong et al., 2020); copies: + + + +
T4 sequence (O95347 whole entry Q147L, chain 1 of 4): as the sequence (O95347 whole entry, chain 1 of 4) above, with Q147L counted along it
T4 sequence (Q9NTJ3 whole entry Q229L, chain 2 of 4): as the sequence (Q9NTJ3 whole entry, chain 2 of 4) above, with Q229L counted along it
T4 sequence (Q6IBW4 whole entry, stated change not applied, chain 3 of 4): as the sequence (Q6IBW4 whole entry, chain 3 of 4) above
T4 sequence (P42695 whole entry, stated change not applied, chain 4 of 4): as the sequence (P42695 whole entry, chain 4 of 4) above

[8] = biological target: T1, human condensin II pentameric complex …; test: fluorescence polarisation; competition; 0.63 µM condensin II and 0.3 µM 5-FAM peptide fixed, unlabelled peptide in two-fold series; 20 mM Tris pH 7.5, 200 mM NaCl, 1 mM DTT; fit for directly competitive binding
[9] = biological target: T1, human condensin II pentameric complex …; test: pull-down; strep-tagged full-length MCPH1 and condensin II separately purified, mixed on strep-tactin sepharose; SDS-PAGE, silver stain

B1: 5-FAM-labelled MCPH1_(407-424) peptide (peptide)
peptide: {5‑FAM}-CGESSYDDYFSPDNLKER
notes: also called 5FAM-MCPH1; source: synthetic peptide (Genscript)
B1 showed a Kd [1] of 0.64 µM.

B2: MCPH1_(1-435)-MBP (domain or fragment, human, UniProt Q8NEM0 1-435, looked up)
chain: MAAPILKDVVAYVEVWSSNGTENYSKTFTTQLVDMGAKVSKTFNKQVTHVIFKDGYQSTWDKAQKRGVKLVSVLWVEKCRTAGAHIDESLFPAANMNEHLSSLIKKKRKCMQPKDFNFKTPENDKRFQKKFEKMAKELQRQKTNLDDDVPILLFESNGSLIYTPTIEINSRHHSAMEKRLQEMKEKRENLSPTSSQMIQQSHDNPSNSLCEAPLNISRDTLCSDEYFAGGLHSSFDDLCGNSGCGNQERKLEGSINDIKSDVCISSLVLKANNIHSSPSFTHLDKSSPQKFLSNLSKEEINLQRNIAGKVVTPDQKQAAGMSQETFEEKYRLSPTLSSTKGHLLIHSRPRSSSVKRKRVSHGSHSPPKEKCKRKRSTRRSIMPRLQLCRSEDRLQHVAGPALEALSCGESSYDDYFSPDNLKERYSENLPPESQL
notes: the text says the tag was moved to the C-terminus for this experiment; source: E. coli BL21 (DE3) pLysS, purified (Ni-NTA, ion exchange or heparin); not shown: MBP, C-terminal, kept
B2: binds [2]; binds [3]; binds [4].

B3: MBP-MCPH1_(1-435) (domain or fragment, human, UniProt Q8NEM0 1-435, looked up)
chain: B2 chain
notes: source: E. coli BL21 (DE3) pLysS, purified (Ni-NTA, ion exchange or heparin); not shown: MBP, N-terminal, kept
B3: binds [5].

B4: MCPH1_(1-435)MBP after removal of the N-terminal 6xHis tag (domain or fragment, human, UniProt Q8NEM0 1-435, looked up)
chain: B2 chain
notes: Same construct as m11, His tag cut off by TEV before gel filtration with condensin II; source: E. coli BL21 (DE3) pLysS, purified (Ni-NTA, ion exchange or heparin, SEC), treated with TEV protease; not shown: His6, N-terminal, cleaved; MBP, C-terminal, kept
B4: binds [6]; binds [7].

For CGESSYDDYFSPDNLKER (source: synthetic peptide (Genscript)) [MCPH1_(407-424) peptide, wild-type, unlabelled], the Kd [8] was 5.3 ± 1 µM.

B5: MCPH1_(407-424) peptide phosphorylated at serine 417 (peptide)
peptide: CGESSYDDYF[pS]PDNLKER
notes: S417 is phosphoserine; also called MCPH1pS417; source: synthetic peptide (Genscript)
With B5 the Kd [8] was 53 ± 8 µM.

B6: MBP-MCPH1_(348-469) (domain or fragment, human, UniProt Q8NEM0 348-469, looked up)
chain: RPRSSSVKRKRVSHGSHSPPKEKCKRKRSTRRSIMPRLQLCRSEDRLQHVAGPALEALSCGESSYDDYFSPDNLKERYSENLPPESQLPSSPAQLSCRSLSKKERTSIFEMSDFSCVGKKTR
notes: MCPH1, human, residues 348-469; This construct is named in the results only; also called His-MBP-MCPH1 348-469; source: E. coli, purified; not shown: MBP, N-terminal, kept
B6: binds [5].

B7: MBP-MCPH1_(196-435) (domain or fragment, human, UniProt Q8NEM0 196-435, looked up)
chain: QMIQQSHDNPSNSLCEAPLNISRDTLCSDEYFAGGLHSSFDDLCGNSGCGNQERKLEGSINDIKSDVCISSLVLKANNIHSSPSFTHLDKSSPQKFLSNLSKEEINLQRNIAGKVVTPDQKQAAGMSQETFEEKYRLSPTLSSTKGHLLIHSRPRSSSVKRKRVSHGSHSPPKEKCKRKRSTRRSIMPRLQLCRSEDRLQHVAGPALEALSCGESSYDDYFSPDNLKERYSENLPPESQL
notes: as for B3
B7: binds [5].

B8: strep-tagged full-length human MCPH1 (natural protein, UniProt Q8NEM0 1-835, looked up)
chain: MAAPILKDVVAYVEVWSSNGTENYSKTFTTQLVDMGAKVSKTFNKQVTHVIFKDGYQSTWDKAQKRGVKLVSVLWVEKCRTAGAHIDESLFPAANMNEHLSSLIKKKRKCMQPKDFNFKTPENDKRFQKKFEKMAKELQRQKTNLDDDVPILLFESNGSLIYTPTIEINSRHHSAMEKRLQEMKEKRENLSPTSSQMIQQSHDNPSNSLCEAPLNISRDTLCSDEYFAGGLHSSFDDLCGNSGCGNQERKLEGSINDIKSDVCISSLVLKANNIHSSPSFTHLDKSSPQKFLSNLSKEEINLQRNIAGKVVTPDQKQAAGMSQETFEEKYRLSPTLSSTKGHLLIHSRPRSSSVKRKRVSHGSHSPPKEKCKRKRSTRRSIMPRLQLCRSEDRLQHVAGPALEALSCGESSYDDYFSPDNLKERYSENLPPESQLPSSPAQLSCRSLSKKERTSIFEMSDFSCVGKKTRTVDITNFTAKTISSPRKTGNGEGRATSSCVTSAPEEALRCCRQAGKEDACPEGNGFSYTIEDPALPKGHDDDLTPLEGSLEEMKEAVGLKSTQNKGTTSKISNSSEGEAQSEHEPCFIVDCNMETSTEEKENLPGGYSGSVKNRPTRHDVLDDSCDGFKDLIKPHEELKKSGRGKKPTRTLVMTSMPSEKQNVVIQVVDKLKGFSIAPDVCETTTHVLSGKPLRTLNVLLGIARGCWVLSYDWVLWSLELGHWISEEPFELSHHFPAAPLCRSECHLSAGPYRGTLFADQPAMFVSPASSPPVAKLCELVHLCGGRVSQVPRQASIVIGPYSGKKKATVKYLSEKWVLDSITQHKVCAPENYLLSQ
notes: MCPH1, human, full length; pLIB MCPH1 from Genscript; also called full-length MCPH1; microcephalin; source: High Five insect cells (baculovirus), purified (StrepTrap, SEC)
B8: binds [9].
